This is an account of results in patent US20250320281A1.

Common to all, as to assay: cell-based or functional assay
In assay [1] the target is HIV-1 JR-CSF Env E466A (HIV-1 isolate JR-CSF) (UniProt P20871).
The target in assay [2] is HIV-1 Env of isolate 93IN905 (pseudovirus) (HIV-1).
Assay [3] deals with HIV-1 Env of isolate JR-CSF (pseudovirus) (HIV-1) (UniProt P20871).
Assay [4] addresses HIV-1 Env of isolate MGRM-C-026 (pseudovirus) (HIV-1).
The target in assay [5] is HIV-1 JR-CSF Env F468A (HIV-1 isolate JR-CSF) (UniProt P20871).
The target in assay [6] is HIV-1 Env of isolate 92BR020 (pseudovirus) (HIV-1).
In assay [7] the target is HIV-1 Env of isolate 94UG103 (pseudovirus) (HIV-1).

B1: PGT-126 (antibody, V domains shown)
VH: QPQLQESGPGLVEASETLSLTCTVSGDSTAACDYFWGWVRQPPGKGLEWIGGLSHCAGYYNTGWTYHNPSLKSRLTISLDTPKNQVFLKLNSVTAADTAIYYCARFDGEVLVYHDWPKPAWVDLWGRGTLVTVSS
VL: QSALTQPPSASGSPGQSISISCTGTSNRFVSWYQQHPGKAPKLVIYGVNKRPSGVPDRFSGSKSGNTASLTVSGLQTDDEAVYYCSSLVGNWDVIFGGGTKLTVL
The molecule B1 came in with a Fold IC50 increase relative to wild-type in assay [1] of 1.4 fold.

B2: 5344_E16 (PGT-135) (antibody, V domains shown)
VH: QLQMQESGPGLVKPSETLSLSCTVSGDSIRGGEWGDKDYHWGWVRHSAGKGLEWIGSIHWRGTTHYKESLRRRVSMSIDTSRNWFSLRLASVTAADTAVYFCARHRHHDVFMLVPIAGWFDVWGPGVQVTVSS
VL: EIVMTQSPDTLSVSPGETVTLSCRASQNINKNLAWYQYKPGQSPRLVIFETYSKIAAFPARFVASGSGTEFTLTINNMQSEDVAVYYCQQYEEWPRTFGQGTKVDIK
For B2, the values for the Primary Neutralization Index (B cell culture supernatant) in assay [2], in assay [3] and in assay [4] were 2.3, 1.5 and 3.6, respectively.

B3: PGT-130 (antibody, V domains shown)
VH: QVQLQESGPGLVKPAETLSLTCSVSGESINTGHYYWGWVRQVPGKGLEWIGHIHYTTAVLHNPSLKSRLTIKIYTLRNQITLRLSNVTAADTAVYHCVRSGGDILYYYEWQKPHWFSPWGPGIHVTVSS
VL: QSALTQPPSASGSLGQSVTISCNGTSSDIGGWNFVSWYQQFPGRAPRLIIFEVNKRPSGVPGRFSGSKSGNSASLTVSGLQSDDEGQYFCSSLFGRWDVVFGGGTKLTVL
Turning to B3, the Fold IC50 increase relative to wild-type in assay [5] was determined as 0.4 fold.

B4: 4869_K15 (PGT-133) (antibody, V domains shown)
VH: QVHLQESGPGLVTPSETLSLTCTVSNGSVSGRFWSWIRQSPGRGLEWIGYFSDTDRSEYNPSLRSRLTLSVDRSKNQLSLRLKSVTAADSATYYCARAQQGKRIYGIVSFGEFFYYYYMDAWGKGTPVTVSS
VL: SLNPLSLAPGATAKIPCGERSRGSRAVQWYQQKPGQAPTLIIYNNQDRPAGVSERFSGNPDVAIGVTATLTISRVEVGDEADYYCHYWDSRSPISWIFGGGTQLTVL
Turning to B4, the Primary Neutralization Index (B cell culture supernatant) worked out at 3.9 in assay [6], 1.5 in assay [7], 2.1 in assay [3] and 104 in assay [4].
